Residue numbers refer to the chain shown, from its start.
Assays:
Experiment in all cases: EMSA
Conditions in all cases: tags: MBP fusion
[1] = target: T1, ZFP SBS#293 (synthetic)
T1 chain: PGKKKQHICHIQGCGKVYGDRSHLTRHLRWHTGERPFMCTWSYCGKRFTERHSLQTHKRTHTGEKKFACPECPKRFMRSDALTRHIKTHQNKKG
Method: (§1) Affinity is measured by titrating purified protein against a fixed amount of labeled double-stranded oligonucleotide target. The target typically comprises the natural binding site sequence flanked by the 3 bp found in the natural sequence and additional, constant flanking sequences. The natural binding site is typically 9 bp for a three-finger protein and 2×9 bp +intervening bases for a six finger ZFP. […] For the assay the target is added at a concentration of 1 nM or lower (the actual concentration is kept at least 10-fold lower than the expected dissociation constant), purified ZFPs are added at various concentrations, and the reaction is allowed to equilibrate for at least 45 min. In addition the reaction mixture also contains 10 mM Tris (pH 7.5), 100 mM KCl, 1 mM MgCl2, 0.1 mM ZnCl2, 5 mM DTT, 10% glycerol, 0.02% BSA. (NB: in earlier assays poly d(IC) was also added at […].) The equilibrated reactions are loaded onto a 10% polyacrylamide gel, which has been pre-run for 45 min in Tris/glycine buffer, then bound and unbound labeled target is resolved by electrophoresis at 150V.

[2] = target: ZFP SBS#246 (synthetic)
ZFP SBS#246 (synthetic), sequence (chain, as listed by the source): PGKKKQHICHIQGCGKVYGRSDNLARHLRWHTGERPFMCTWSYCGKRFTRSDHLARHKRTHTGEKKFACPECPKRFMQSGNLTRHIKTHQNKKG
Method: as §1

[3] = target: ZFP SBS#247 (synthetic)
Method: as §1

[4] = target: ZFP SBS#249 (synthetic)
ZFP SBS#249 (synthetic), sequence (chain, as listed by the source): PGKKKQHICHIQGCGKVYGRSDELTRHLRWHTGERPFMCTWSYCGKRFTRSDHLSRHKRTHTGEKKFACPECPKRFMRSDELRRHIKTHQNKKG
Method: as §1

[5] = target: T2, ZFP SBS#250 (synthetic)
T2 chain: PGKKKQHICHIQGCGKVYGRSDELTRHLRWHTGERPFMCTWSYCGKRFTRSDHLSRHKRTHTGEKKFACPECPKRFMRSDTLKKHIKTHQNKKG
Method: as §1

[6] = target: T3, ZFP SBS#283 (synthetic)
T3 chain: T2 chain with E23A, R50Q, D52G, H53N, S55T, R78Q, D80G, T81S, K83T, K84R
Method: as §1

[7] = target: ZFP SBS#211 (synthetic)
ZFP SBS#211 (synthetic), sequence (chain, as listed by the source): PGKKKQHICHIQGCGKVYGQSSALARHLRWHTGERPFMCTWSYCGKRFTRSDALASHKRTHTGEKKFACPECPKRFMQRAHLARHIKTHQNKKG
Method: as §1

[8] = target: ZFP SBS#209 (synthetic)
ZFP SBS#209 (synthetic), sequence (chain, as listed by the source): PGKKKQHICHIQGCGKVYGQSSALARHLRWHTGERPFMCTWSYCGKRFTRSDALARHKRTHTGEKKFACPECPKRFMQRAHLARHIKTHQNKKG
Method: as §1

[9] = target: T4, ZFP SBS#210 (synthetic)
T4 chain: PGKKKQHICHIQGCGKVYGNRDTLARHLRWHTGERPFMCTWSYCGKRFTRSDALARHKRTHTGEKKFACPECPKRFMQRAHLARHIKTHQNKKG
Method: as §1

[10] = target: T5, ZFP SBS#212 (synthetic)
T5 chain: T4 chain with R56S
Method: as §1

[11] = target: ZFP SBS#217 (synthetic)
ZFP SBS#217 (synthetic), sequence (chain, as listed by the source): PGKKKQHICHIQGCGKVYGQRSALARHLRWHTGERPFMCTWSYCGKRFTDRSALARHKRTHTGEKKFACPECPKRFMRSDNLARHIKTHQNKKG
Method: as §1

[12] = target: T6, ZFP SBS#223 (synthetic)
T6 chain: T4 chain with N20D, D22S, T23N, A25R, R26T, A53N, R79Q, A80S, H81N
Method: as §1

[13] = target: ZFP SBS#240 (synthetic)
ZFP SBS#240 (synthetic), sequence (chain, as listed by the source): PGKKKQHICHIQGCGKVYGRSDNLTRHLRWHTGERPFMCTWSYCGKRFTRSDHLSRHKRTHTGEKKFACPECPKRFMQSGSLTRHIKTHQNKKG
Method: as §1

[14] = target: T7, ZFP SBS#235 (synthetic)
T7 chain: T4 chain with N20R, R21S, T23A, A25T, A53N, A80G, H81A
Method: as §1

[15] = target: T8, ZFP SBS#264 (synthetic)
T8 chain: T1 chain with H23S, E50Q, R51S, H52S, S53D, T56R, T83A
Method: as §1

[16] = target: T9, ZFP SBS#265 (synthetic)
T9 chain: T1 chain with D20E, S22G, H23T, T25A, E50Q, R51S, H52S, S53D, T56R, T83A
Method: as §1

[17] = target: T10, ZFP SBS#272 (synthetic)
T10 chain: T2 chain with R20D, S21R, D22S, E23S, R78Q, D80G, T81S, K83T, K84R
Method: as §1

[18] = target: T11, ZFP SBS#225 (synthetic, UniProt P08047)
T11 chain: T4 chain with N20D, D22S, T23A, A53N, Q78R, R79S, A80D, A83T, R84T
Method: as §1

[19] = target: T12, ZFP SBS#269 (synthetic)
T12 chain: T1 chain with D20R, R21S, S22D, E50D, H52S, Q55T, T56R, A81H
Method: as §1

[20] = target: T13, ZFP SBS#270 (synthetic)
T13 chain: T1 chain with D20R, R21S, S22D, H52G, S53T, Q55A, T56R, A81H
Method: as §1

[21] = target: T14, ZFP SBS#237 (synthetic, UniProt P08047)
T14 chain: T4 chain with N20E, D22G, A53N, Q78R, R79S, A80D, A83S
Method: as §1

[22] = target: T15, ZFP SBS#238 (synthetic, UniProt P08047)
T15 chain: T4 chain with N20E, D22G, A53N, A55Q, Q78R, R79S, A80D, A83S
Method: as §1

[23] = target: ZFP SBS#239 (synthetic)
Method: as §1

[24] = target: T16, ZFP SBS#207 (synthetic)
T16 chain: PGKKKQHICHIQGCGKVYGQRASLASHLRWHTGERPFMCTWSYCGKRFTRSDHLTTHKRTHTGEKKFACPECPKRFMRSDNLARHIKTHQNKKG
Method: as §1

[25] = target: ZFP SBS#242 (synthetic, UniProt P08047)
ZFP SBS#242, sequence (P08047 other isoform, or with tags, fused parts or gaps): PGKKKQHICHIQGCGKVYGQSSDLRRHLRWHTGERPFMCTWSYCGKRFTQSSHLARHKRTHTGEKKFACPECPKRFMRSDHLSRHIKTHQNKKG
Method: as §1

[26] = target: ZFP SBS#289 (synthetic)
ZFP SBS#289 (synthetic), sequence (chain, as listed by the source): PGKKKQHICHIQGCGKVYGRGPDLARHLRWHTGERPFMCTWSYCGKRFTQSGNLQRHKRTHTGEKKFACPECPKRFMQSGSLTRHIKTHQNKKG
Method: as §1

[27] = target: T17, ZFP SBS#243 (synthetic)
T17 chain: T1 chain with D20Q, R21S, H23D, T25R, E50D, H52S, S53H, Q55A, T56R, T83A
Method: as §1

[28] = target: ZFP SBS#244 (synthetic)
Method: as §1

[29] = target: ZFP SBS#245 (synthetic)
ZFP SBS#245 (synthetic), sequence (chain, as listed by the source): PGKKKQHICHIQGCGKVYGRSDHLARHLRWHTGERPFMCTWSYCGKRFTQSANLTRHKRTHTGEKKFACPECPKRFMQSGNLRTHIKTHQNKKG
Method: as §1

[30] = target: T18, ZFP SBS#205 (synthetic)
T18 chain: T16 chain with R21S, S23N, S26R, R50Q, D52A, H53T, T55A, T56R, A83S
Method: as §1

[31] = target: T19, ZFP SBS#236 (synthetic, UniProt P08047)
T19 chain: T2 chain with E23H, T25A, H53N, S55A, T81H, K83S, K84R
Method: as §1

[32] = target: ZFP SBS#233 (synthetic)
ZFP SBS#233 (synthetic), sequence (chain, as listed by the source): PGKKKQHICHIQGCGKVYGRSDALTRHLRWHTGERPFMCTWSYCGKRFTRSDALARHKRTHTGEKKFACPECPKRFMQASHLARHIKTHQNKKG
Method: as §1

[33] = target: ZFP SBS#232 (synthetic)
Method: as §1

B1: GTGTGCGGC (dsDNA)
DNA 1: GTGTGCGGC
DNA 2: GCCGCACAC
How did the Kd [1] turn out when B1 was run?
The Kd was 320 nM.

B2: GAAGGGGAG (dsDNA)
DNA 1: GAAGGGGAG
DNA 2: CTCCCCTTC
Which results are given for B2?
Kd [2]: 2 nM; Kd [3]: 2 nM

B3: GCGGGGGCG (dsDNA)
DNA 1: GCGGGGGCG
DNA 2: CGCCCCCGC
What does the source list for B3?
Kd [4]: 20 nM; Kd [5]: 70 nM

B4: GCAGAAGTG (dsDNA)
DNA 1: GCAGAAGTG
DNA 2: CACTTCTGC
With B4 as the binder, how does the Kd [6] read?
Its Kd is 2 nM.

B5: GGAGTGGTT (dsDNA)
DNA 1: GGAGTGGTT
DNA 2: AACCACTCC
For B5, which Kd [7] is on record?
Its Kd is 140 nM.

What about the Kd [8] of the same binder?
Its Kd is 35 nM.

And the Kd [9]?
Its Kd is 65 nM.

What about the Kd [10] of the same binder?
The Kd was 400 nM.

B6: GAGGTCGTA (dsDNA)
DNA 1: GAGGTCGTA
DNA 2: TACGACCTC
B6 was tested. Which Kd [11] did it give?
Its Kd is 40 nM.

B7: GATGAGTAC (dsDNA)
DNA 1: GATGAGTAC
DNA 2: GTACTCATC
B7 was tested. Which Kd [12] did it give?
Its Kd is 105 nM.

B8: GCAGGGGAG (dsDNA)
DNA 1: GCAGGGGAG
DNA 2: CTCCCCTGC
How did the Kd [13] turn out when B8 was run?
The Kd was 1 nM.

B9: GTAGAGGTG (dsDNA)
DNA 1: GTAGAGGTG
DNA 2: CACCTCTAC
How did the Kd [14] turn out when B9 was run?
Its Kd is 80 nM.

B10: GTGGCTGCC (dsDNA)
DNA 1: GTGGCTGCC
DNA 2: GGCAGCCAC
For B10, which Kd [15] is on record?
Its Kd is 27 nM.

What about the Kd [16] of the same binder?
Its Kd is 600 nM.

B11: GCAGGGGCC (dsDNA)
DNA 1: GCAGGGGCC
DNA 2: GGCCCCTGC
Which Kd [17] does the source give for B11 here?
The Kd was 20 nM.

B12: TGGGAGGTC (dsDNA)
DNA 1: TGGGAGGTC
DNA 2: GACCTCCCA
How did the Kd [18] turn out when B12 was run?
The Kd was 6 nM.

B13: GGGGCCGGG (dsDNA)
DNA 1: GGGGCCGGG
DNA 2: CCCGGCCCC
B13 was tested. Which Kd [19] did it give?
Its Kd is 5 nM.

What about the Kd [20] of the same binder?
The Kd was 52.5 nM.

B14: GGGGAGGCC (dsDNA)
DNA 1: GGGGAGGCC
DNA 2: GGCCTCCCC
What does the source list for B14?
Kd [21]: 0.3 nM; Kd [22]: 0.8 nM

B15: GGCGGGGAG (dsDNA)
DNA 1: GGCGGGGAG
DNA 2: CTCCCCGCC
Which Kd [23] does the source give for B15 here?
The Kd was 0.4 nM.

B16: GAGTGGTTA (dsDNA)
DNA 1: GAGTGGTTA
DNA 2: TAACCACTC
B16 was tested. Which Kd [24] did it give?
The Kd was 70 nM.

B17: GGGGGTGCT (dsDNA)
DNA 1: GGGGGTGCT
DNA 2: AGCACCCCC
With B17 as the binder, how does the Kd [25] read?
Its Kd is 1 nM.

B18: GCAGAAGCG (dsDNA)
DNA 1: GCAGAAGCG
DNA 2: CGCTTCTGC
Which Kd [26] does the source give for B18 here?
Its Kd is 800 nM.

B19: GTGGGCGCT (dsDNA)
DNA 1: GTGGGCGCT
DNA 2: AGCGCCCAC
How did the Kd [27] turn out when B19 was run?
The Kd was 75 nM.

B20: TAAGAAGGG (dsDNA)
DNA 1: TAAGAAGGG
DNA 2: CCCTTCTTA
With B20 as the binder, how does the Kd [28] read?
Its Kd is 100 nM.

And the Kd [29]?
The Kd was 235 nM.

B21: GAGGTAGAA (dsDNA)
DNA 1: GAGGTAGAA
DNA 2: TTCTACCTC
B21 was tested. Which Kd [30] did it give?
Its Kd is 80 nM.

B22: GGGGAGGGG (dsDNA)
DNA 1: GGGGAGGGG
DNA 2: CCCCTCCCC
With B22 as the binder, how does the Kd [31] read?
Its Kd is 0.3 nM.

B23: GGTGTGGTG (dsDNA)
DNA 1: GGTGTGGTG
DNA 2: CACCACACC
How did the Kd [32] turn out when B23 was run?
The Kd was 100 nM.

What about the Kd [33] of the same binder?
Its Kd is 50 nM.

Reference: patent US20030068675, “Position dependent recognition of GNN nucleotide triplets by zinc fingers” (published 2003)
